# B1: MLF2 (protein, UniProt Q15773 1-248, looked up)
# Myeloid leukemia factor 2: MFRFMRDVEPEDPMFLMDPFAIHRQHMSRMLSGGFGYSPFLSITDGNMPGTRPASRRMQQAGAVSPFGMLGMSGGFMDMFGMMNDMIGNMEHMTAGGNCQTFSSSTVISYSNTGDGAPKVYQETSEMRSAPGGIRETRRTVRDSDSGLEQMSIGHHIRDRAHILQRSRNHRTGDQEERQDYINLDESEAAAFDDEWRRETSRFRQQRPLEFRRLESSGAGGRRAEGPPRLAIQGPEDSPSRQSRRYDW
# B2: ASCC2 (protein, UniProt Q9H1I8 1-757, looked up)
# Activating signal …: MPALPLDQLQITHKDPKTGKLRTSPALHPEQKADRYFVLYKPPPKDNIPALVEEYLERATFVANDLDWLLALPHDKFWCQVIFDETLQKCLDSYLRYVPRKFDEGVASAPEVVDMQKRLHRSVFLTFLRMSTHKESKDHFISPSAFGEILYNNFLFDIPKILDLCVLFGKGNSPLLQKMIGNIFTQQPSYYSDLDETLPTILQVFSNILQHCGLQGDGANTTPQKLEERGRLTPSDMPLLELKDIVLYLCDTCTTLWAFLDIFPLACQTFQKHDFCYRLASFYEAAIPEMESAIKKRRLEDSKLLGDLWQRLSHSRKKLMEIFHIILNQICLLPILESSCDNIQGFIEEFLQIFSSLLQEKRFLRDYDALFPVAEDISLLQQASSVLDETRTAYILQAVESAWEGVDRRKATDAKDPSVIEEPNGEPNGVTVTAEAVSQASSHPENSEEEECMGAAAAVGPAMCGVELDSLISQVKDLLPDLGEGFILACLEYYHYDPEQVINNILEERLAPTLSQLDRNLDREMKPDPTPLLTSRHNVFQNDEFDVFSRDSVDLSRVHKGKSTRKEENTRSLLNDKRAVAAQRQRYEQYSVVVEEVPLQPGESLPYHSVYYEDEYDDTYDGNQVGANDADSDDELISRRPFTIPQVLRTKVPREGQEEDDDDEEDDADEEAPKPDHFVQDPAVLREKAEARRMAFLAKKGYRHDSSTAVAGSPRGHGQSRETTQERRKKEANKATRANHNRRTMADRKRSKGMIPS
# B3: O60613 (protein, UniProt O60613 1-165, looked up)
# chain: MVAMAAGPSGCLVPAFGLRLLLATVLQAVSAFGAEFSSEACRELGFSSNLLCSSCDLLGQFNLLQLDPDCRGCCQEEAQFETKKLYAGAILEVCGUKLGRFPQVQAFVRSDKPKLFRGLQIKYVRGSDPVLKLLDDNGNIAEELSILKWNTDSVEEFLSEKLERI
# modifications: full-length
# B4: MOBKL3 (protein, UniProt Q96BX8 1-217, looked up)
# MOB kinase activator 3A: MSNPFLKQVFNKDKTFRPKRKFEPGTQRFELHKKAQASLNAGLDLRLAVQLPPGEDLNDWVAVHVVDFFNRVNLIYGTISDGCTEQSCPVMSGGPKYEYRWQDEHKFRKPTALSAPRYMDLLMDWIEAQINNEDLFPTNVGTPFPKNFLQTVRKILSRLFRVFVHVYIHHFDRIAQMGSEAHVNTCYKHFYYFVKEFGLIDTKELEPLKEMTARMCH
# Assays:
# [1] = system: Hsp90 complexes in K562 cell extract; assay: Nano-LC-MS/MS of PU-beads pull-downs; format: binding; conditions: protein identified in PU-beads pull-down of K562 cell extract, QSTAR-Elite QTof MS
# Procedure, shortened: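 Lysates pre-cleared overnight at 4 °C with control beads, then pulled down with PU-beads or control beads; eluted proteins (2% SDS boil) gel-separated and analysed by nano LC-MS/MS on a QTof. Mascot identification (p<0.05), spectral counts and sequence coverage evaluated in Scaffold.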
# [2] = system: Hsp90 complexes in Mia-PaCa-2 cell extract; assay: Nano-LC-MS/MS of PU-beads pull-downs; format: binding, human; conditions: protein identified in PU-beads pull-down of Mia-PaCa-2 cell extract; QSTAR-Elite QTof MS
# Procedure, shortened: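 Lysates pre-cleared overnight at 4 °C with control beads underwent PU-bead pull-down; bound proteins were SDS-eluted, gel-separated, digested and analyzed by nano-LC-MS/MS on a QTof. Identifications used significance p<0.05, 0.4 Da tolerances and one missed cleavage; unique peptide (spectral) counts and sequence coverage were reported.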
Molecule,"Number of Assigned Spectra, K562 Prep 1 [1]","Number of Assigned Spectra, K562 Prep 2 [1]","Number of Assigned Spectra, Mia-Paca 2 [2]"
B1,2,0,1
B2,0,0,1
B3,0,0,2
B4,0,0,1

# Source: patent US20220074941A1, “HSP90 COMBINATION THERAPY” (Sloan-Kettering Institute for Cancer Research, priority 2011, published 2022)
